Source: patent publication US20220204630A1 (SUNSHINE LAKE PHARMA, published 2022)

Tests used:
[1] = target: T1, TrkA protein on HEK-293T-TrkA cells or NIH-3T3-TrkA cells (human, UniProt P04629 33-796); assay: cell-based or functional assay
[2] = target: T1, TrkA protein on HEK-293T-TrkA cells or …; assay: flow cytometry on HEK-293T-TrKA cells
Description: (§1) In FIG. 7, the EC₅₀ (half-binding concentration) value reflects the affinity of the antibody. The smaller the EC₅₀ value, the higher the affinity of the antibody.

[3] = target: T2, Mouse-TrKA receptor on the surface of HEK293T-Mouse-TrKA cells (mouse, UniProt Q3UFB7 34-799); assay: flow cytometry on HEK293T-Mouse-TrKA cells
T2 construct: whole, on cells; also called Mouse-TrkA protein on HEK293T-Mouse-TrkA cells
T2 sequence (Q3UFB7 34-799): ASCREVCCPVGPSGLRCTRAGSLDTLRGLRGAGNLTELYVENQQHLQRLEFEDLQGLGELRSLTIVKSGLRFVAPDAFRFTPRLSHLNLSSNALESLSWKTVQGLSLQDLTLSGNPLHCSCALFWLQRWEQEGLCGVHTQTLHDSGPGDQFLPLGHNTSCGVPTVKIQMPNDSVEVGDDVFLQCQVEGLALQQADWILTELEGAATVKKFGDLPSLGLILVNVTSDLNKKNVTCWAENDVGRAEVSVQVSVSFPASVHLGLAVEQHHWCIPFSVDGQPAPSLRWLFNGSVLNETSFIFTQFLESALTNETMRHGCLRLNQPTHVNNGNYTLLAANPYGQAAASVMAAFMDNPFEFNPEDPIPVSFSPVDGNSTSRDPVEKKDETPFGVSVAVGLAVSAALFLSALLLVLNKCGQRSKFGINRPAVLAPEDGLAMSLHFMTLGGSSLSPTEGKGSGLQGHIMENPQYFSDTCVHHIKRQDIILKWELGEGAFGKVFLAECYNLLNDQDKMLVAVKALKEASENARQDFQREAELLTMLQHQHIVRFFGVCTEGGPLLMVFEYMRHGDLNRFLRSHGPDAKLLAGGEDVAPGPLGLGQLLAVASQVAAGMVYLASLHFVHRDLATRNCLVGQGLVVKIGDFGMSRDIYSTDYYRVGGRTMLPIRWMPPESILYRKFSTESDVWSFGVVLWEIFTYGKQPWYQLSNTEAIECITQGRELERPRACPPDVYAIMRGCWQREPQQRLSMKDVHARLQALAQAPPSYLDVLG
Procedure: The test antibody 23E12 samples were diluted with PBS buffer to 11 concentration gradients (20 μg/mL, 10 μg/mL, 5 μg/mL, 2.5 μg/mL, 1.25 μg/mL, 0.625 μg/mL, 0.313 μg/mL, 0.156 μg/mL, 0.078 μg/mL, 0.039 μg/mL, 0.019 μg/mL), and the binding of the test antibody to the Mouse-TrKA receptor on the surface of HEK293T-Mouse-TrKA cells at each concentration gradient was detected by flow cytometry. The binding ability of the antibody to Mouse-TrKA protein was tested. In FIG. 10, the EC₅₀ (half the binding concentration) value reflects the binding capacity of the antibody. The smaller the EC₅₀ value, the stronger the binding capacity of the antibody. […] It can be seen that the test antibody 23E12 has a good binding ability with the Mouse-TrKA receptor on the surface of HEK293T-Mouse-TrKA cells.

[4] = target: T3, TrKA receptor protein coated in ELISA (Examples 11 and 16) (human, UniProt P04629 33-423, limits assumed); assay: ELISA plateau, antibody up to 20 µg/mL on TrKA
T3 construct: also called Human-TrKA
T3 sequence (P04629 33-423 limits assumed): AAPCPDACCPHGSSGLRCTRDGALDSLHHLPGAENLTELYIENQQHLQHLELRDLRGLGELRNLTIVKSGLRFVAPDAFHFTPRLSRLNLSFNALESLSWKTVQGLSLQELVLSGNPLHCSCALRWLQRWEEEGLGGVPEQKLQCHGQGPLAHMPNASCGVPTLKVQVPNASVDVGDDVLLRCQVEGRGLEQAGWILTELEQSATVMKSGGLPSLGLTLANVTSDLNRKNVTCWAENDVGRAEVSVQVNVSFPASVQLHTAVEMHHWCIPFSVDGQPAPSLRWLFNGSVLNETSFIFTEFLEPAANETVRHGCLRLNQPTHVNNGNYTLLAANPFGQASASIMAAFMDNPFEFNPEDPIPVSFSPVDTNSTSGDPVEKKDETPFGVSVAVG
Procedure: The TrkA receptor family belongs to receptor tyrosine kinases (RTKs), including TrkA, TrkB, and TrkC, which have high homology. TrkA is a receptor tyrosine kinase of nerve growth factor (NGF) that selectively binds to NGF and is a functional receptor for NGF. In addition to the high-affinity receptor TrkA, NGF can also bind to its low-affinity receptor p75. In the test, the binding of test antibodies at different concentrations (20 μg/mL, 10 μg/mL, 5 μg/mL, 2.5 μg/mL, 1.25 μg/mL, 0.625 μg/mL, 0.313 μg/mL, 0.156 μg/mL, 0.078 μg/mL, 0.039 μg/mL, 0.019 μg/mL) to TrKA, TrKB, TrKC, and P75 respectively was detected by the ELISA method, and the specificity of the test antibody binding to the target TrKA was evaluated. In the FIG. 8, at a certain antibody concentration, the OD₄₅₀ value reflects the binding strength of the antibody to the protein. The larger the reading, the stronger the binding of the antibody to the protein. […] It can be seen that the specificity of the binding of the test antibodies to the target TrKA is very good.

Mouse-TrKA protein = target: T4, Mouse-TrKA protein (mouse, UniProt Q3UFB7 34-420, limits assumed); assay: ELISA, antibody titrated on Mouse-TrKA protein, OD 450
T4 construct: also called Mouse-TrKA receptor
T4 sequence (Q3UFB7 34-420 limits assumed): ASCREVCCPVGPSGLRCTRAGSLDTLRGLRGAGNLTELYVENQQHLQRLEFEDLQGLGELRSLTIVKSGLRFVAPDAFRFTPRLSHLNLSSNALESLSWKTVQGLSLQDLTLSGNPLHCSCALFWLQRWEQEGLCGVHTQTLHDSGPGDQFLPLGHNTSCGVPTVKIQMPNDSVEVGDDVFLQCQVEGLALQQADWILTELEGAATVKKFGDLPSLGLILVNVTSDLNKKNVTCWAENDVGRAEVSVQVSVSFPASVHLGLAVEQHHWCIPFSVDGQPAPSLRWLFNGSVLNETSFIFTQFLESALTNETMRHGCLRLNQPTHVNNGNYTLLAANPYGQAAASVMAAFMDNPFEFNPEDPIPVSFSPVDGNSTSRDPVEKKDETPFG
Procedure: Test antibody (23E12, 21E5) samples were diluted with PBS buffer solution to 11 concentration gradients (20 μg/mL, 10 μg/mL, 5 μg/mL, 2.5 μg/mL, 1.25 μg/mL, […], 0.313 μg/mL, 0.156 μg/mL, 0.078 μg/mL, 0.039 μg/mL, 0.019 μg/mL). The binding of the test antibody to the Mouse-TrKA receptor at each concentration gradient was detected by the ELISA method, thus the binding ability of the test antibody to the Mouse-TrKA protein was detected. In FIG. 9, at a certain antibody concentration, the OD₄₅₀ value reflects the binding strength of the antibody to the protein. The larger the reading, the stronger the binding of the antibody to the protein. […] It can be seen that the test antibodies 23E12, 21E5, and Mouse-TrKA protein all have good binding ability.

[5] = target: T1, TrkA protein on HEK-293T-TrkA cells or …; assay: flow cytometry, antibody titrated on HEK-293T-TrKA cells, Parent %
Description: as §1

[6] = target: T5, TRKA protein with a histidine tag (human, UniProt P04629 33-423, limits assumed); assay: BLI (Fortebio Octet RED96), His-tagged TRKA on Ni-NTA sensor, antibody 80-2.93 nM
T5 construct: it is put last here only for order; also called TRKA (50 µg/ml, 75 kDa, provided by HEC Labs); not shown: histidine tag
T5 sequence (P04629 33-423 limits assumed): as the sequence (P04629 33-423 limits assumed) above
Procedure: They were added to each well of the sample plate. […] The KD value is the equilibrium dissociation constant between the antibody and its antigen, and the KD value is inversely proportional to the affinity. The KD value is related to the antibody concentration (the amount of antibody required for a particular experiment). The lower the KD value (the lower the concentration), the higher the affinity of the antibody. High-affinity antibodies are generally considered to be in the low nanomolar range (10⁻⁹).

[7] = target: T2, Mouse-TrKA receptor on the surface of …; assay: flow cytometry competition on HEK293T-Mouse-TrkA cells; competitor biotinylated Mouse-NGF
Procedure: Mouse-NGF was biotinylated. Mouse-NGF could bind to the extracellular region of Mouse-TrkA protein on HEK293 T-Mouse-TrkA cells, and anti-Mouse-TrkA monoclonal antibody could also bind to the extracellular region of Mouse-TrkA protein on HEK293T-Mouse-TrkA cells. A competitive experiment was designed to detect the binding of Mouse-NGF to the extracellular region of Mouse-TrkA protein on HEK293T-Mouse-TrkA cells under different concentrations (20 μg/mL, 10 μg/mL, 5 μg/mL, 2.5 μg/mL, 1.25 μg/mL, 0.625 μg/mL, 0.313 μg/mL, 0.156 μg/mL, 0.078 μg/mL, 0.039 μg/mL, 0.019 μg/mL) of test antibodies by flow cytometry, thus the inhibition effect of test antibodies on the binding of Mouse-NGF and Mouse-TrKA was investigated. In FIG. 12, the parent % value reflects the Mouse-NGF signal that binds to the extracellular region of the Mouse-TrKA protein on the HEK293T-Mouse-TrkA cell.

[8] = target: T3, TrKA receptor protein coated in ELISA …; assay: competition ELISA: antibody titrated against biotinylated NGF binding to TrkA, OD450
[9] = target: T1, TrkA protein on HEK-293T-TrkA cells or …; assay: flow cytometry competition: antibody titrated against biotinylated NGF binding to HEK-293T-TrkA cells, % parent

T1 sequence (P04629 33-796): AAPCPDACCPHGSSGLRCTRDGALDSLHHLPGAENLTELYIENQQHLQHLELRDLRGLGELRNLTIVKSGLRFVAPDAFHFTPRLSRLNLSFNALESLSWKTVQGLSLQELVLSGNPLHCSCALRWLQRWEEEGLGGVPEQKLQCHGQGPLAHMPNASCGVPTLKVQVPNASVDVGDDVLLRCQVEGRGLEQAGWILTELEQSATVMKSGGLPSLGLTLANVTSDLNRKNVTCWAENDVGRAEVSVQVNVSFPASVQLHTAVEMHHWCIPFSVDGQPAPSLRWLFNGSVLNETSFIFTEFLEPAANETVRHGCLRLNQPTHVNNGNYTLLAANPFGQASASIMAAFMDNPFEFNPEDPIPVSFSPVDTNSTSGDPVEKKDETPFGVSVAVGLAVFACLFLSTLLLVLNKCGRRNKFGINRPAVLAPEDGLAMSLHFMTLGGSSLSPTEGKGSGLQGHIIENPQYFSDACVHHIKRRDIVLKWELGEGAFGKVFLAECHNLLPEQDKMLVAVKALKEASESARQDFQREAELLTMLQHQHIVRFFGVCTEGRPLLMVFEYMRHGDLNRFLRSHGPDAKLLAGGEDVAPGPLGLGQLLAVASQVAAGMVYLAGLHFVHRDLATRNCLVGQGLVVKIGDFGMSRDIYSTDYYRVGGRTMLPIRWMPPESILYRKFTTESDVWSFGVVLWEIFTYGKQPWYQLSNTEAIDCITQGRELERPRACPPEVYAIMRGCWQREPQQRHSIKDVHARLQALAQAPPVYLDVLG

| IC50; p-TrkA level by AlphaLISA in NGF-stimulated NIH3T3-TrkA stable cell line [1] | EC50 [2] | EC50 [3] | OD450 [4] | EC50 (Mouse-TrKA protein) | EC50 [5] | Kd [6] | koff [6] | kon [6] | IC50 [7] | IC50 [8] | IC50 [9] | Binder |
| --- | --- | --- | --- | --- | --- | --- | --- | --- | --- | --- | --- | --- |
| 0.0537 µg/mL | < 1.5 µg/mL | 0.0801 µg/mL | ~3 OD450 | 0.0208 µg/mL | 0.0443 µg/mL | 0.057 nM | 0.000109 s⁻¹ | 1.9e+06 M⁻¹ s⁻¹ | 0.0515 µg/mL | 0.213 µg/mL | 0.426 µg/mL | 23E12 chimeric antibody (antibody, human IgG4 S228P, kappa, F234A L235A, V domains shown, expressed in CHO cells) VH: QVQLQQSGAELVRPGTSVKISCKASGYAFTNYWLGWMKQRPGHGLEWIGDFYPRTGNTFYNENFKGKVTLTADKSSNTAYMQLSSLTSEDSAVYLCARAGTGFDYWGQGTTLTVSS VL: SIVMTQSPKSMSMSVGERVTLSCKASENVGGYVSWYQQKPDQSPKLLIYGASSRHTGVPDRFTGSGSETDFTLTISSVQAEDLAAYHCGQNYIYPFTFGGGTKLEIKR |
| 0.0437 µg/mL | < 1.5 µg/mL |  | ~3 OD450 |  | 0.0447 µg/mL | 0.178 nM | 0.000279 s⁻¹ | 1.57e+06 M⁻¹ s⁻¹ |  | 0.11 µg/mL | 0.369 µg/mL | 27H3 chimeric antibody (antibody, human IgG4 S228P, kappa, F234A L235A, V domains shown, expressed in CHO cells) VH: QVQLQQSGAELMKPGASVKISCKTTGYRFSSYWIEWVKQRPGHGLEWLGEILPGRGIINYNENFRGKATFTADTSSNTAYVQLSSLTSEDSAVYFCARTDPPYFGVWGAGTTVTVSS VL: QAVVTQESALTTSPGETVTLTCRSSTGAVTISNYANWVQEKPDHLFTGLIGGTNNRPPGVPARFSGSLIGDKAALTITGAQTEDEAIYFCVLWYSNHWVFGGGTKLTVLR |
| 0.0856 µg/mL | < 1.5 µg/mL |  | ~3 OD450 | 0.0954 µg/mL | 0.0575 µg/mL | 0.173 nM | 0.000175 s⁻¹ | 1.01e+06 M⁻¹ s⁻¹ |  | 0.294 µg/mL | 0.547 µg/mL | 21E5 chimeric antibody (antibody, human IgG4 S228P, kappa, F234A L235A, V domains shown, expressed in CHO cells) VH: QVQLQQSGAELMKPGASMKISCKATGYTFSTYWIEWVKQRPGHGLEWIGENLPGRHITNYNEKFKGKATFTADTSSNTAYMQLSSLTSEDSAVYYCARGRGTYYFDYWGQGTPLTVSS VL: DIVMTQAAFSTPVTLGTSASISCRSSQSLLHSNGITYLYWYLQKPGQSPQLLIYQMSNLASGVPDRFSSSGSGTDFTLRISRVEAEDVGVYYCAQNLEFPFTFGSGTKLEIKR |
